Measured values: patent US6680170B2, “Polynucleotides encoding STE20-related protein kinases and methods of use” (Sugen, Inc., priority 1998, dated 2004)
Where no end group is shown, it is not given here.

How the values were obtained:
PAK5 = biological target: T1, PAK5 (Homo sapiens, UniProt O96013); assay: In vitro kinase assay, activation loop peptides as PAK5 substrates; type: biochemical; conditions: for substrate: peptide substrates at 2.5 μM
T1 construct: made in house; host or cells: 293 cells (transient transfection, immunopurified on protein A sepharose) or bacteria (GST fusion)
T1 sequence (O96013 whole entry, the tested form may be a part): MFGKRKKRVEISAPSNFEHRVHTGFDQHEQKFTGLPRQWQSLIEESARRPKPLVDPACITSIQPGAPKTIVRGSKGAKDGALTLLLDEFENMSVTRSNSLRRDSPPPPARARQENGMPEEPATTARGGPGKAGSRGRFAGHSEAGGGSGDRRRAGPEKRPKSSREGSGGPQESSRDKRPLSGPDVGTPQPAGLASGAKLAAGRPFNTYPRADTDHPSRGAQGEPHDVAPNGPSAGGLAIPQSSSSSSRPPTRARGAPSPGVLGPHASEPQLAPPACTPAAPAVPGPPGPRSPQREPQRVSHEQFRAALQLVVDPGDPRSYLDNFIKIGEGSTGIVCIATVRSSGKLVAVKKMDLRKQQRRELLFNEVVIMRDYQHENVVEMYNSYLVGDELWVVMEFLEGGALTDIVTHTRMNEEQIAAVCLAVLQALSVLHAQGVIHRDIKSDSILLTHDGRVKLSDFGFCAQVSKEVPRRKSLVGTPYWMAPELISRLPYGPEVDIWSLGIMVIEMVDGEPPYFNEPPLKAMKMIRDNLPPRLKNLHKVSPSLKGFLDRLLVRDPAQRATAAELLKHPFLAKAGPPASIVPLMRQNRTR
Method: (§1) Three days after transfection with the STE20-related kinase expression contructs, a 10 cm plate of 293 cells was washed with PBS and solubilized on ice with 2 mL PBSTDS containing phosphatase inhibitors (10 mM NaHPO4, pH 7.25, 150 mM NaCl, 1% Triton X-100, 0.5% deoxycholate, 0.1% SDS, 0.2% sodium azide, 1 mM NaF, 1 mM EGTA, 4 mM sodium orthovanadate, 1% aprotinin, 5 μg/mL leupeptin). Cell debris was removed by centrifugation (12000× g, 15 min, 4° C.) and the lysate was precleared by two successive incubations with 50 μL of a 1:1 slurry of protein A sepharose for 1 hour each. One-half mL of the cleared supernatant was reacted with 10 μL of protein A purified kinase-specific antisera (generated from the GST fusion protein or antipeptide antisera) plus 50 μL of a 1:1 slurry of protein A-sepharose for 2 hr at 4° C. The beads were then washed 2 times in PBSTDS, and 2 times in HNTG (20 mM HEPES, pH 7.5/150 mM NaCl, 0,1% Triton X-100, 10% glycerol).
(§2) The immunopurified kinases on sepharose beads were resuspended in 20 μL HNTG plus 30 mM MgCl2, 10 mM MnCl2, and 20 μCi […] (3000 Ci/mmol). The kinase reactions were run for 30 min at room temperature, and stopped by addition of HNTG supplemented with 50 mM EDTA. The samples were washed 6 times in HNTG, boiled 5 min in SDS sample buffer and analyzed by 6% SDS-PAGE followed by autoradiography. Phosphoamino acid analysis was performed by standard 2D methods on ^32P-labeled bands excised from the SDS-PAGE gel.
Similar assays were performed on bacterially expressed GST-fusion constructs of the kinases.
20 mM Hepes pH 7.2, 130 mM KCl, 10 mM MgCl2, 1 mM NaF, 20 mM B-glycerolphosphate, 0.5 mM DTT, 50 μM ATP, 0.5 μCi ^32PyATP.
Substrates: MBP at 0.28 mg/mL and peptide substrates derived from PAK5 activation loop at 2.5 μM.
To aid in the development of in vitro kinase assays for screening small molecule libraries to identify specific inhibitors, the search for specific peptide substrates for PAK5 was undertaken.
The rationale used to design such peptides is based on the hypothesis that upon binding activated small G protein, PAK5 undergoes a conformational change that results in derepression of its kinase activity followed by autophosphorylation on the activation loop resulting in a fully active kinase. The site of autophosphorylation for related family members has been identified by biochemical and/or genetic means (e.g. Wu, C, et al. J.Biol.Chem 270:15984-15992 and Szczepanowska, et al. Proc.Natl.Acad.Sci 94, 8503-8508, 1997). Specific peptide substrates for PAKS were designed from the sequence of the activation loop of this kinase.

PAK4 = biological target: T2, PAK4 (Homo sapiens, UniProt Q9NQU5); assay: In vitro kinase assay, activation loop peptide as PAK4 substrate; type: biochemical
T2 construct: made in house; host or cells: 293 cells (transient transfection, immunopurified) or bacteria (GST fusion)
T2 sequence (Q9NQU5 whole entry, the tested form may be a part): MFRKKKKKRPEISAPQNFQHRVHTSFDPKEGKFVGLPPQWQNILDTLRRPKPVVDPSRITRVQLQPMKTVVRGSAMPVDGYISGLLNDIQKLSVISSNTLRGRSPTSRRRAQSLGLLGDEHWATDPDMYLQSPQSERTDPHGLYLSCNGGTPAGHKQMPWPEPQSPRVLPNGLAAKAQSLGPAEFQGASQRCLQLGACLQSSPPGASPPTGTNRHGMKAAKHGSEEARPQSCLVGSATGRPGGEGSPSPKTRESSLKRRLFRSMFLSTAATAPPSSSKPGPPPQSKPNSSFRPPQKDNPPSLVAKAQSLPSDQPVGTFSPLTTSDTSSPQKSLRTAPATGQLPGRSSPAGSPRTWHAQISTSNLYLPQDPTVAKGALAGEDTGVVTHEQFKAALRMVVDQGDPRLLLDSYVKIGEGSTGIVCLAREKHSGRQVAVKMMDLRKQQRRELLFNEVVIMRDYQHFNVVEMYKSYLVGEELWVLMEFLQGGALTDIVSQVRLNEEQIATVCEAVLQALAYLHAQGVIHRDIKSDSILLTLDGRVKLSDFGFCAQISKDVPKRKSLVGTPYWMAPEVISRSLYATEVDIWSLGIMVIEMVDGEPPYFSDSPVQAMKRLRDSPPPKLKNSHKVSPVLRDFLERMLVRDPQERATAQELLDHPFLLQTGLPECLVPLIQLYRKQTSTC
Method: as §1
as §2, with “Phosphoamino acid analysis was performed by standard 2D methods on ^32P-labeled bands excised from the SDS-PAGE gel.” left out

For “RRNTFIGTPYWMAPE (also: phosphorylated residue) [Peptide 8, phosphorylated residue marking not visible]”, the “Notes: substrate quality relative to MBP or other peptides” value (PAK5) was “Better than 7”.

With “(C) RRKSLVGTPYWMAPE [1] (CRRKSLVGTPYWMAPE; N-terminal cysteine) [Peptide 1]” the “Notes: substrate quality relative to MBP or other peptides” value (PAK5) was “Equally well as MBB” and the substrate (PAK5) was “yes”.

“(C) RRKSLVGTPYWMAPE (CRRKSLVGTPYWMAPE; N-terminal cysteine) [Peptide 10]” was tested, and the “Notes: Km for PAK4 compared with PAK5” value (PAK4) was “Same Km as phosph. by PAK5” and the substrate (PAK4) was “yes”.

With KRKSFIGTPYWMAPE [Peptide 4] the “Notes: substrate quality relative to MBP or other peptides” value (PAK5) was “Similiar to peptide 1” and the substrate (PAK5) was “yes”.

In the case of “(C) RRKSLVGTPYWMAPE [3] (CRRKSLVGTPYWMAPE; also: phosphorylated residue) [Peptide 3, phosphorylated residue marking not visible]”, the substrate (PAK5) was “no”.

With “(C) RRKSLVGTPYWMAPE [2] (CRRKSLVGTPYWMAPE; also: phosphorylated residue) [Peptide 2, phosphorylated residue marking not visible]” the Km (PAK5; Notes column) was 1 to 10 µM and the substrate (PAK5) was “yes”.

In the case of RRNTFIGTPYWMAPE [Peptide 7], the substrate (PAK5) was “poor”.

For PANSFVGTPYWMAPE [Peptide 6], the substrate (PAK5) was “poor”.

In the case of RNKVRKTFVGTPCWMAPE [Peptide 9], the substrate (PAK5) was “poor”.

For KRNTFVGTPFWMAPE [Peptide 5], the substrate (PAK5) was “poor”.
